Results as given in the RNAGym collection of RNA variant scans (doi:10.1093/molbev/msab373).

B1: Azoarcus group I ribozyme (parent)
chain: GUGCCUUGCGCCGGGAAACCACGCAAGGGAUGGUGUCAAAUUCGGCGAAACCUAAGCGCCCGCCCGGGCGUAUGGCAACGCCGAGCCAAGCUUCGGCGCCUGCGCCGAUGAAGGUGUAGAGACUAGACGGCACCCACCUAAGGCAAACGCUAUGGUGAAGGCAUAGUCCAGGGAGUGGCGAAAGUCACACAAACCGG

Variants of: B1
Assay: reverse-splicing fitness (ratio to wild type); higher = more active; in vitro selection; Mg2+ level not given
Method in brief: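 An in vitro group I ribozyme library with randomized positions was T7-transcribed and gel-purified. In triplicate, 10 pmol RNA in EPPS pH 7.5 was reacted with 50 pmoles of a 30-nt RNA substrate for 1 h at 37 °C across several added MgCl2 levels (1–48 mM), then stopped with EDTA. Products were reverse transcribed from a substrate-complementary primer, PCR-amplified and sequenced (HiSeq 4000). Fitness is a variant's read proportion after selection over that before, normalised to wild type.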

Variant	reverse-splicing fitness
GUGCCUUGCGCCGGGAAACCACGCAAGGGAUGGUGUCAAAUUCGGCGAAACCUAAGCGCCCGCCCGGGCGUAUGGCAACGCGGAGCCAAGCUUCGGCGCCUGCGCCGAUGCAGGUGUAGAGACUAGACGGCACCCACCUAAGGCCAACGAUAUGGUGAAGGCAUAGUCCAGGGAGGGGCGAAAGUCACACAAACCGG	0.00879
GUGCCUUGCGCCGGGAAACCACGCAAGGGAUGGUGUCAAAUUCGGCGAAACCUAAGCGCCCGCCCGGGCGUAUGGCAACGCGGAGCCAAGCUUCGGCGCCUGCGCCGAUGCAGGUGUAGAGACUAGACGGCACCCACCUAAGGCCAACGUUAUGGUGAAGGCAUAGUCUAGGGAGAGGCGAAAGUCACACAAACCGG	0.013
GUGCCUUGCGCCGGGAAACCACGCAAGGGAUGGUGUCAAAUUCGGCGAAACCUAAGCGCCCGCCCGGGCGUAUGGCAACGCGGAGCCAAGCUUCGGCGCCUGCGCCGAUGCAGGUGUAGAGACUAGACGGCACCCACCUAAGGCCAACGUUAUGGUGAAGGCAUAGUCUAGGGAGCGGCGAAAGUCACACAAACCGG	0.0131
GUGCCUUGCGCCGGGAAACCACGCAAGGGAUGGUGUCAAAUUCGGCGAAACCUAAGCGCCCGCCCGGGCGUAUGGCAACGCGGAGCCAAGCUUCGGCGCCUGCGCCGAUGCAGGUGUAGAGACUAGACGGCACCCACCUAAGGCCAACGUUAUGGUGAAGGCAUAGUCUAGGGAGGGGCGAAAGUCACACAAACCGG	0.00739
GUGCCUUGCGCCGGGAAACCACGCAAGGGAUGGUGUCAAAUUCGGCGAAACCUAAGCGCCCGCCCGGGCGUAUGGCAACGCGGAGCCAAGCUUCGGCGCCUGCGCCGAUGCAGGUGUAGAGACUAGACGGCACCCACCUAAGGCCAACGGUAUGGUGAAGGCAUAGUCAAGGGAGCGGCGAAAGUCACACAAACCGG	0.00828
GUGCCUUGCGCCGGGAAACCACGCAAGGGAUGGUGUCAAAUUCGGCGAAACCUAAGCGCCCGCCCGGGCGUAUGGCAACGCGGAGCCAAGCUUCGGCGCCUGCGCCGAUGCAGGUGUAGAGACUAGACGGCACCCACCUAAGGCCAACGGUAUGGUGAAGGCAUAGUCAAGGGAGAGGCGAAAGUCACACAAACCGG	0.00825
GUGCCUUGCGCCGGGAAACCACGCAAGGGAUGGUGUCAAAUUCGGCGAAACCUAAGCGCCCGCCCGGGCGUAUGGCAACGCGGAGCCAAGCUUCGGCGCCUGCGCCGAUGCAGGUGUAGAGACUAGACGGCACCCACCUAAGGCCAACGGUAUGGUGAAGGCAUAGUCAAGGGAGGGGCGAAAGUCACACAAACCGG	0.00732
GUGCCUUGCGCCGGGAAACCACGCAAGGGAUGGUGUCAAAUUCGGCGAAACCUAAGCGCCCGCCCGGGCGUAUGGCAACGCGGAGCCAAGCUUCGGCGCCUGCGCCGAUGCAGGUGUAGAGACUAGACGGCACCCACCUAAGGCCAACGGUAUGGUGAAGGCAUAGUCUAGGGAGAGGCGAAAGUCACACAAACCGG	0.00717
GUGCCUUGCGCCGGGAAACCACGCAAGGGAUGGUGUCAAAUUCGGCGAAACCUAAGCGCCCGCCCGGGCGUAUGGCAACGCGGAGCCAAGCUUCGGCGCCUGCGCCGAUGCAGGUGUAGAGACUAGACGGCACCCACCUAAGGCCAACGGUAUGGUGAAGGCAUAGUCUAGGGAGCGGCGAAAGUCACACAAACCGG	0.0102
GUGCCUUGCGCCGGGAAACCACGCAAGGGAUGGUGUCAAAUUCGGCGAAACCUAAGCGCCCGCCCGGGCGUAUGGCAACGCGGAGCCAAGCUUCGGCGCCUGCGCCGAUGCAGGUGUAGAGACUAGACGGCACCCACCUAAGGCCAACGGUAUGGUGAAGGCAUAGUCUAGGGAGGGGCGAAAGUCACACAAACCGG	0.0071
GUGCCUUGCGCCGGGAAACCACGCAAGGGAUGGUGUCAAAUUCGGCGAAACCUAAGCGCCCGCCCGGGCGUAUGGCAACGCGGAGCCAAGCUUCGGCGCCUGCGCCGAUGCAGGUGUAGAGACUAGACGGCACCCACCUAAGGCCAACGGUAUGGUGAAGGCAUAGUCCAGGGAGAGGCGAAAGUCACACAAACCGG	0.0132
GUGCCUUGCGCCGGGAAACCACGCAAGGGAUGGUGUCAAAUUCGGCGAAACCUAAGCGCCCGCCCGGGCGUAUGGCAACGCGGAGCCAAGCUUCGGCGCCUGCGCCGAUGCAGGUGUAGAGACUAGACGGCACCCACCUAAGGCCAACGGUAUGGUGAAGGCAUAGUCCAGGGAGCGGCGAAAGUCACACAAACCGG	0.0203
GUGCCUUGCGCCGGGAAACCACGCAAGGGAUGGUGUCAAAUUCGGCGAAACCUAAGCGCCCGCCCGGGCGUAUGGCAACGCGGAGCCAAGCUUCGGCGCCUGCGCCGAUGCAGGUGUAGAGACUAGACGGCACCCACCUAAGGCCAACGGUAUGGUGAAGGCAUAGUCCAGGGAGGGGCGAAAGUCACACAAACCGG	0.00447
GUGCCUUGCGCCGGGAAACCACGCAAGGGAUGGUGUCAAAUUCGGCGAAACCUAAGCGCCCGCCCGGGCGUAUGGCAACGCGGAGCCAAGCUUCGGCGCCUGCGCCGAUGCAGGUGUAGAGACUAGACGGCACCCACCUAAGGCCAACGGUAUGGUGAAGGCAUAGUCCAGGGAGUGGCGAAAGUCACACAAACCGG	0.0271
GUGCCUUGCGCCGGGAAACCACGCAAGGGAUGGUGUCAAAUUCGGCGAAACCUAAGCGCCCGCCCGGGCGUAUGGCAACGCGGAGCCAAGCUUCGGCGCCUGCGCCGAUGCAGGUGUAGAGACUAGACGGCACCCACCUAAGGCCAACGUUAUGGUGAAGGCAUAGUCCAGGGAGUGGCGAAAGUCACACAAACCGG	0.0631
